Among the data in patent US5786206 are Optical density values, retold here.

The target in assay [1] is control protein from cells containing plasmid pUR291 (beta-galactosidase without an apolipoprotein insert) (Escherichia coli (strain K12)) [β-galactosidase: P00722]. Briefly: ELISA, plate coated with 1/8 dilution of the pUR291 control stock, HRPO-labeled AI-11 1:1000. On the technique in general: In an ELISA, binding on a coated surface is turned into a signal by an enzyme label.

In assay [2] the target is apo A-I/B-100 fusion protein expressed by plasmid 137 (beta-galactosidase / apo A-I / apo B-100) (human). Briefly: ELISA, plate coated with 1/8 dilution of the 137 stock, HRPO-labeled AI-11 1:1000.
Assay [3] has as its target control protein from cells containing plasmid pUR291 (beta-galactosidase without an apolipoprotein insert) (Escherichia coli (strain K12)) [β-galactosidase: P00722]. The assay can be described thus: ELISA, plate coated with 1/64 dilution of the pUR291 control stock, HRPO-labeled AI-11 1:1000.
Assay [4] has the same target. The assay can be described thus: ELISA, plate coated with 1/32 dilution of the pUR291 control stock, HRPO-labeled AI-11 1:1000.
Assay [5] addresses apo A-I/B-100 fusion protein expressed by plasmid 137 (beta-galactosidase / apo A-I / apo B-100) (human). The assay can be described thus: ELISA, plate coated with 1/4 dilution of the 137 stock, HRPO-labeled AI-11 1:1000.
The target of assay [6] is control protein from cells containing plasmid pUR291 (beta-galactosidase without an apolipoprotein insert) (Escherichia coli (strain K12)) [β-galactosidase: P00722]. Briefly: ELISA, plate coated with 1/16 dilution of the pUR291 control stock, HRPO-labeled AI-11 1:1000.
Assay [7] has as its target apo A-I/B-100 fusion protein expressed by plasmid 137 (beta-galactosidase / apo A-I / apo B-100) (human). The assay can be described thus: ELISA, plate coated with 1/2 dilution of the 137 stock (0.95 ug/100 ul), HRPO-labeled AI-11 1:1000.
For assay [8] the target is unchanged. Briefly: ELISA, plate coated with 1/32 dilution of the 137 stock, HRPO-labeled AI-11 1:1000.
The target is the same in assay [9]. The assay can be described thus: ELISA, plate coated with 1/16 dilution of the 137 stock, HRPO-labeled AI-11 1:1000.
For assay [10] the target is unchanged. Briefly: ELISA, plate coated with 1/64 dilution of the 137 stock, HRPO-labeled AI-11 1:1000.
Assay [11] deals with control protein from cells containing plasmid pUR291 (beta-galactosidase without an apolipoprotein insert) (Escherichia coli (strain K12)) [β-galactosidase: P00722]. Briefly: ELISA, plate coated with 1/2 dilution of the pUR291 control stock (395.0 ug/100 ul), HRPO-labeled AI-11 1:1000.
For assay [12] the target is unchanged. Briefly: ELISA, plate coated with 1/4 dilution of the pUR291 control stock, HRPO-labeled AI-11 1:1000.
Assay [13] concerns the target apo A-I/B-100 fusion protein expressed by plasmid 137 (beta-galactosidase / apo A-I / apo B-100) (human). The assay can be described thus: ELISA, plate coated with 1/16 dilution of the 137 stock, HRPO-labeled MB47 1:1000.
Assay [14] has as its target control protein from cells containing plasmid pUR291 (beta-galactosidase without an apolipoprotein insert) (Escherichia coli (strain K12)) [β-galactosidase: P00722]. The assay can be described thus: ELISA, plate coated with 1/2 dilution of the pUR291 control stock (395.0 ug/100 ul), HRPO-labeled MB47 1:1000.
Assay [15] concerns the target apo A-I/B-100 fusion protein expressed by plasmid 137 (beta-galactosidase / apo A-I / apo B-100) (human). The assay can be described thus: ELISA, plate coated with 1/64 dilution of the 137 stock, HRPO-labeled MB47 1:1000.
Assay [16] shares this target. Briefly: ELISA, plate coated with 1/4 dilution of the 137 stock, HRPO-labeled MB47 1:1000.
Assay [17] shares this target. Briefly: ELISA, plate coated with 1/8 dilution of the 137 stock, HRPO-labeled MB47 1:1000.
Assay [18] has the same target. Briefly: ELISA, plate coated with 1/2 dilution of the 137 stock (0.95 ug/100 ul), HRPO-labeled MB47 1:1000.
The target of assay [19] is control protein from cells containing plasmid pUR291 (beta-galactosidase without an apolipoprotein insert) (Escherichia coli (strain K12)) [β-galactosidase: P00722]. The assay can be described thus: ELISA, plate coated with 1/64 dilution of the pUR291 control stock, HRPO-labeled MB47 1:1000.
For assay [20], the target named is apo A-I/B-100 fusion protein expressed by plasmid 137 (beta-galactosidase / apo A-I / apo B-100) (human). Briefly: ELISA, plate coated with 1/32 dilution of the 137 stock, HRPO-labeled MB47 1:1000.
Assay [21] has as its target control protein from cells containing plasmid pUR291 (beta-galactosidase without an apolipoprotein insert) (Escherichia coli (strain K12)) [β-galactosidase: P00722]. The assay can be described thus: ELISA, plate coated with 1/4 dilution of the pUR291 control stock, HRPO-labeled MB47 1:1000.
Assay [22] shares this target. Briefly: ELISA, plate coated with 1/16 dilution of the pUR291 control stock, HRPO-labeled MB47 1:1000.
Assay [23] shares this target. The assay can be described thus: ELISA, plate coated with 1/32 dilution of the pUR291 control stock, HRPO-labeled MB47 1:1000.
For assay [24] the target is unchanged. Briefly: ELISA, plate coated with 1/8 dilution of the pUR291 control stock, HRPO-labeled MB47 1:1000.

“monoclonal antibody AI-11, secreted by hybridoma AI-11 (ATCC HB 9201)”: the Optical density at 490 nm in [1] came out at 0.08 OD 490 nm; in [2], 0.2 OD 490 nm; in assay [3], 0.04 OD 490 nm; in assay [4], 0.05 OD 490 nm; in assay [5] it was 0.6 OD 490 nm; in assay [6], 0.07 OD 490 nm. The Optical density at 490 nm in assay [7] came out at 1 OD 490 nm; in assay [8], 0.14 OD 490 nm; in assay [9], 0.14 OD 490 nm; in assay [10], 0.12 OD 490 nm; in assay [11] it was 0.1 OD 490 nm; in assay [12], 0.08 OD 490 nm.
For the substance “monoclonal antibody MB47, secreted by hybridoma MB47 (ATCC HB 8746)”, the Optical density at 490 nm came out at 0.1 OD 490 nm in assay [13]; 0.1 OD 490 nm in [14]; 0.08 OD 490 nm in assay [15]; 0.46 OD 490 nm in assay [16]; 0.14 OD 490 nm in assay [17]; 1.3 OD 490 nm in assay [18]. Also, the Optical density at 490 nm in [19] worked out at 0.01 OD 490 nm; in assay [20] it was 0.1 OD 490 nm; in [21] it was 0.12 OD 490 nm; in assay [22], 0.04 OD 490 nm; in assay [23] it was 0.02 OD 490 nm; in assay [24] it was 0.1 OD 490 nm.
